# Laboratory results: ChEMBL document CHEMBL2074013, “Effect of 17 beta-estradiol-D-17 beta-glucuronide on the rat organic anion transporting polypeptide 2-mediated transport differs depending on substrates” (Drug Metab Dispos, 2002)
# Substrate: C[C@H]1O[C@@H](O[C@H]2[C@@H](O)C[C@H](O[C@H]3[C@@H](O)C[C@H](O[C@H]4CC[C@@]5(C)[C@H](CC[C@@H]6[C@@H]5C[C@@H](O)[C@]5(C)[C@@H](C7=CC(=O)OC7)CC[C@]65O)C4)O[C@@H]3C)O[C@@H]2C)C[C@H](O)[C@@H]1O
# Assay: cells, lysate or membranes named
# Description: TP_TRANSPORTER: uptake in Oatp2-expressing LLC-PK1 cells
protein,measurement,value
Solute carrier organic anion transporter family member 1A4 (Rattus norvegicus) (protein) MGKSEKRVATHGVRCFAKIKMFLLALTCAYVSKSLSGTYMNSMLTQIERQFGIPTSIVGLINGSFEIGNLLLIIFVSYFGTKLHRPIMIGVGCAVMGLGCFLISLPHFLMGQYEYETILPTSNVSSNSFFCVENRSQTLNPTQDPSECVKEMKSLMWIYVLVGNIIRGIGETPIMPLGISYIEDFAKSENSPLYIGILETGMTIGPLIGLLLASSCANIYVDIESVNTDDLTITPTDTRWVGAWWIGFLVCAGVNILTSFPFFFFPKTLPKEGLQENVDGTENAKEKKHRKKAKEEKRGITKDFFVFMKSLSCNPIYMLFILISVLQFNAFINSFTFMPKYLEQQYGKSTAEVVFLMGLYMLPPICLGYLIGGLIMKKFKVTVKKAAHLAFWLCLSEYLLSFLSYVMTCDNFPVAGLTTSYEGVQHQLYVENKVLADCNTRCNCSTNTWDPVCGDNGLAYMSACLAGCEKSVGTGTNMVFQNCSCIQSSGNSSAVLGLCNKGPDCANKLQYFLIIAIFGCFIYSLAGIPGYMVLLRCIKSEEKSLGVGLHAFCIRILAGIPAPIYFGALIDRTCLHWGTLKCGEPGACRMYDINSFRRLYLGLPAALRGASFVPAFFILRLTRTFQFPGDIESSKTDHAEMKLTLKESECTEVLRSKVTED,Km,1.07 µM
